± gives the uncertainty stated by the source.
B1: POU domain, class 4, transcription factor 2, residues 256 to 327; numbered along this chain, Q12837 (parent)
chain: RDLEAFAERFKQRRIKLGVTQADVGSALANLKIPGVGSLSQSTICRFESLTLSHNNMIALKPILQAWLEEAE

Variants of: B1
Test: abundance fitness (aPCA) (normalised: wild type 0, dead -1); higher = more abundant; growth selection in yeast, the domain comes from the species named
Settings: Homo sapiens

Variant	abundance fitness
S40H	-0.228 ± 0.09
S40W	-0.779 ± 0.18
S40Q	-0.293 ± 0.19
S40R	-0.312 ± 0.059
S40L	-0.671 ± 0.088
S40P	-0.193 ± 0.028
L28P	-0.935 ± 0.14
L28A	-0.654 ± 0.14
L28F	-0.215 ± 0.12
L28I	0.072 ± 0.12
L28M	0.008 ± 0.085
L28W	-0.597 ± 0.1
G35L	-0.329 ± 0.076
G35H	-0.528 ± 0.18
P62H	-0.23 ± 0.2
P62F	-0.761 ± 0.24
I63H	0.07 ± 0.084
I63M	-0.382 ± 0.18
I63Y	-0.333 ± 0.31
I63P	-0.329 ± 0.052
I63C	-0.231 ± 0.25
Q21R	-0.111 ± 0.043
Q21L	0.002 ± 0.055
Q21A	-0.028 ± 0.091

Variant	abundance fitness
Q21T	0.011 ± 0.066
Q21W	-0.238 ± 0.059
R46L	-0.22 ± 0.062
R46M	-0.12 ± 0.11
R46W	-0.567 ± 0.16
R46T	-0.531 ± 0.19
R46K	0.033 ± 0.12
R46D	0.094 ± 0.14
R46A	-0.027 ± 0.11
N56R	-0.134 ± 0.084
N56G	-0.024 ± 0.13
N56Y	-0.248 ± 0.45
N56D	0.281 ± 0.31
N56H	0.128 ± 0.16
K61H	-0.137 ± 0.12
K61R	0.049 ± 0.071
K61S	-0.42 ± 0.087
K61F	-0.38 ± 0.16
K61Y	-0.237 ± 0.15
K61L	-0.148 ± 0.07
A22T	-0.347 ± 0.096
A22S	-0.082 ± 0.051
A22K	-0.078 ± 0.12
A22N	-0.219 ± 0.11

Variant	abundance fitness
A22H	-0.03 ± 0.15
A22L	-0.222 ± 0.054
A22R	-0.138 ± 0.049
L50R	-0.077 ± 0.055
L50P	-0.867 ± 0.12
L50D	-0.196 ± 0.13
L50N	0.161 ± 0.076
L50I	-0.361 ± 0.18
L50T	-0.147 ± 0.094
L50G	0.06 ± 0.046
S38W	-0.209 ± 0.093
S38L	-0.045 ± 0.055
S38Q	-0.051 ± 0.12
S38K	-0.127 ± 0.082
S38V	-0.159 ± 0.069
A59S	-0.095 ± 0.051
A59R	-0.032 ± 0.043
A59C	-0.431 ± 0.12
A59Q	0.062 ± 0.082
A59G	-0.169 ± 0.097
L31I	0.057 ± 0.24
L31A	-0.426 ± 0.13
L31W	0.038 ± 0.095
L31Q	0.058 ± 0.08

Variant	abundance fitness
L31E	-0.112 ± 0.1
V36L	0.061 ± 0.046
V36M	-0.203 ± 0.11
V36Q	-0.147 ± 0.072
D2L	-0.568 ± 0.084
D2M	-0.318 ± 0.2
T20H	-0.736 ± 0.17
T20Y	-1.05 ± 0.25
T20N	-0.559 ± 0.4
T20Q	-0.555 ± 0.13
T20W	-0.731 ± 0.17
Q41K	0.054 ± 0.15
Q41D	-0.058 ± 0.098
A71E	-0.247 ± 0.083
A71F	-0.02 ± 0.15
A71N	-0.225 ± 0.23
A71D	-0.614 ± 0.23
I58P	-0.854 ± 0.17
I58V	-0.028 ± 0.081
I58R	0.07 ± 0.045
I58C	-0.374 ± 0.21
I58K	0.063 ± 0.076
I58G	-0.287 ± 0.076
R9F	-0.335 ± 0.19

Variant	abundance fitness
R9E	0.263 ± 0.1
R9K	0.007 ± 0.17
R9A	-0.07 ± 0.062
R9Y	-0.055 ± 0.15
R9I	-0.347 ± 0.22
L68Y	-0.372 ± 0.17
L68D	-0.617 ± 0.21
L68T	-0.733 ± 0.3
M57S	-0.602 ± 0.081
M57P	-0.924 ± 0.11
K16Y	-0.073 ± 0.23
K16E	0.036 ± 0.12
K16N	-0.55 ± 0.49
K16P	-1.1 ± 0.28
K16Q	0.004 ± 0.076
K16I	-0.016 ± 0.1
K16G	-0.026 ± 0.086
G25L	-0.031 ± 0.059
G25P	-0.487 ± 0.1
G25F	-0.494 ± 0.24
N30W	-0.315 ± 0.08
N30M	-0.5 ± 0.11
N30A	-0.116 ± 0.082
N30K	0.054 ± 0.14

Variant	abundance fitness
N30S	-0.059 ± 0.061
N30E	-0.456 ± 0.16
N30Y	-0.183 ± 0.27
N30V	-0.432 ± 0.11
S26P	-0.694 ± 0.089
S26R	0.062 ± 0.055
P34T	-0.275 ± 0.092
P34M	-0.175 ± 0.13
P34H	-0.073 ± 0.12
P34E	-0.036 ± 0.075
S42E	0.107 ± 0.13
S42P	-0.381 ± 0.059
S42W	-0.359 ± 0.12
S42H	0.085 ± 0.076
S42V	-0.113 ± 0.057
S42R	-0.085 ± 0.068
S42N	-0.28 ± 0.15
F47W	-0.836 ± 0.12
F47T	-0.922 ± 0.14
F47C	-0.214 ± 0.24
F47D	-0.82 ± 0.35
F47N	-0.871 ± 0.37
F47I	-0.67 ± 0.38
F47P	-0.897 ± 0.19

Variant	abundance fitness
F47S	-0.996 ± 0.15
S53E	-0.066 ± 0.12
S53H	-0.376 ± 0.15
S53A	-0.163 ± 0.046
S53L	-0.729 ± 0.1
S53D	0.043 ± 0.1
S53Y	-0.556 ± 0.18
S53C	-0.514 ± 0.18
A5C	-0.311 ± 0.24
A5T	-0.201 ± 0.2
A5W	-0.491 ± 0.27
A5E	-0.329 ± 0.35
A5Q	-0.055 ± 0.12
R14V	-0.998 ± 0.27
R14C	-0.854 ± 0.21
R14P	-0.985 ± 0.078
R14A	-0.906 ± 0.42
R14I	-0.601 ± 0.31
K32C	-0.192 ± 0.19
K32E	0.052 ± 0.11
K32Q	-0.012 ± 0.069
K32Y	0.061 ± 0.19
K32T	-0.112 ± 0.11

Reference: the Human Domainome abundance scans (Beltran et al. 2025)
